The supplement of paper PMC10567573

B1: SMTNL2 (parent)
chain: ETAAGKGKGEARARLKRSQSFGVA

Variants of: B1
Assay: protein stability index of a GFP-peptide fusion (GPS, HEK-293T) (PSI 1-6); higher = more stable
Conditions: c terminus: a fixed tail appended
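Note: lentivirally expressed fusions sorted by FACS into six bins by GFP to DsRed ratio, PSI derived from sequencing read proportions per bin multiplied by bin number.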

Row | Variant | protein stability index
1 | ETAAGKGKGEARARLKRSQSFGVC [A24C] | 4.28
2 | ETAAGKGKGEARARLKRSQSFGVV [A24V] | 4.01
3 | ETAAGKGKGEARARLKRSQSFGVW [A24W] | 3.57
4 | ETAAGKGKGEARARLKRSQSFGVK [A24K] | 4.41
5 | ETAAGKGKGEARARLKRSQSFGVR [A24R] | 4.52
6 | ETAAGKGKGEARARLKRSQSFGVP [A24P] | 4.88
7 | ETAAGKGKGEARARLKRSQSFGVQ [A24Q] | 4.51
8 | ETAAGKGKGEARARLKRSQSFGVM [A24M] | 4.29
9 | ETAAGKGKGEARARLKRSQSFGVN [A24N] | 5.09
10 | ETAAGKGKGEARARLKRSQSFGVL [A24L] | 4.49
11 | ETAAGKGKGEARARLKRSQSFGVI [A24I] | 3.75
12 | ETAAGKGKGEARARLKRSQSFGVH [A24H] | 4.27
13 | ETAAGKGKGEARARLKRSQSFGVF [A24F] | 3.97
14 | ETAAGKGKGEARARLKRSQSFGVY [A24Y] | 3.72
15 | ETAAGKGKGEARARLKRSQSFGVT [A24T] | 4.23
16 | ETAAGKGKGEARARLKRSQSFGVE [A24E] | 4.71
17 | ETAAGKGKGEARARLKRSQSFGVD [A24D] | 4.9
18 | ETAAGKGKGEARARLKRSQSFGVG [A24G] | 4.6
19 | ETAAGKGKGEARARLKRSQSFGVS [A24S] | 4.65
20 | ETAAGKGKGEARARLKRSDSFGVA [Q19D] | 4.61
21 | ETAAGKGKGEARARLKRSCSFGVA [Q19C] | 4.09
22 | ETAAGKGKGEARARLKRSNSFGVA [Q19N] | 4.89
23 | ETAAGKGKGEARARLKRSKSFGVA [Q19K] | 4.46
24 | ETAAGKGKGEARARLKRSMSFGVA [Q19M] | 4.18

Row | Variant | protein stability index
25 | ETAAGKGKGEARARLKRSSSFGVA [Q19S] | 3.19
26 | ETAAGKGKGEARARLKRSISFGVA [Q19I] | 3.27
27 | ETAAGKGKGEARARLKRSWSFGVA [Q19W] | 4.33
28 | ETAAGKGKGEARARLKRSPSFGVA [Q19P] | 4.45
29 | ETAAGKGKGEARARLKRSFSFGVA [Q19F] | 3.67
30 | ETAAGKGKGEARARLKRSYSFGVA [Q19Y] | 3.89
31 | ETAAGKGKGEARARLKRSTSFGVA [Q19T] | 4.68
32 | ETAAGKGKGEARARLKRSVSFGVA [Q19V] | 3.96
33 | ETAAGKGKGEARARLKRSLSFGVA [Q19L] | 4.08
34 | ETAAGKGKGEARARLKRSESFGVA [Q19E] | 5.15
35 | ETAAGKGKGEARARLKRSRSFGVA [Q19R] | 4.3
36 | ETAAGKGKGEARARLKRSHSFGVA [Q19H] | 4.81
37 | ETAAGKGKGEARARLKRSASFGVA [Q19A] | 4.35
38 | ETAAGKGKGEARARLKRSGSFGVA [Q19G] | 4.38
39 | ETAAGKGKGEARARLKRSQSPGVA [F21P] | 5.12
40 | ETAAGKGKGEARARLKRSQSAGVA [F21A] | 5.25
41 | ETAAGKGKGEARARLKRSQSMGVA [F21M] | 4.3
42 | ETAAGKGKGEARARLKRSQSLGVA [F21L] | 5.02
43 | ETAAGKGKGEARARLKRSQSDGVA [F21D] | 5.51
44 | ETAAGKGKGEARARLKRSQSCGVA [F21C] | 5.02
45 | ETAAGKGKGEARARLKRSQSYGVA [F21Y] | 4.65
46 | ETAAGKGKGEARARLKRSQSNGVA [F21N] | 5
47 | ETAAGKGKGEARARLKRSQSIGVA [F21I] | 5.28
48 | ETAAGKGKGEARARLKRSQSQGVA [F21Q] | 5.2

Row | Variant | protein stability index
49 | ETAAGKGKGEARARLKRSQSTGVA [F21T] | 5.16
50 | ETAAGKGKGEARARLKRSQSWGVA [F21W] | 3.22
51 | ETAAGKGKGEARARLKRSQSKGVA [F21K] | 5.23
52 | ETAAGKGKGEARARLKRSQSVGVA [F21V] | 5.25
53 | ETAAGKGKGEARARLKRSQSSGVA [F21S] | 5.07
54 | ETAAGKGKGEARARLKRSQSHGVA [F21H] | 4.96
55 | ETAAGKGKGEARARLKRSQSGGVA [F21G] | 4.08
56 | ETAAGKGKGEARARLKRSQSEGVA [F21E] | 5.45
57 | ETAAGKGKGEARARLKRSQSRGVA [F21R] | 4.23
58 | ETAAGKGKGEARARLKMSQSFGVA [R17M] | 4.09
59 | ETAAGKGKGEARARLKNSQSFGVA [R17N] | 4.54
60 | ETAAGKGKGEARARLKSSQSFGVA [R17S] | 4.18
61 | ETAAGKGKGEARARLKVSQSFGVA [R17V] | 3.59
62 | ETAAGKGKGEARARLKQSQSFGVA [R17Q] | 4.67
63 | ETAAGKGKGEARARLKPSQSFGVA [R17P] | 3.23
64 | ETAAGKGKGEARARLKTSQSFGVA [R17T] | 4.17
65 | ETAAGKGKGEARARLKYSQSFGVA [R17Y] | 3.81
66 | ETAAGKGKGEARARLKWSQSFGVA [R17W] | 2.95
67 | ETAAGKGKGEARARLKLSQSFGVA [R17L] | 3.76
68 | ETAAGKGKGEARARLKKSQSFGVA [R17K] | 4.6
69 | ETAAGKGKGEARARLKRFQSFGVA [S18F] | 3.65
70 | ETAAGKGKGEARARLKRAQSFGVA [S18A] | 4.22
71 | ETAAGKGKGEARARLKRCQSFGVA [S18C] | 3.81
72 | ETAAGKGKGEARARLKRYQSFGVA [S18Y] | 2.89

Row | Variant | protein stability index
73 | ETAAGKGKGEARARLKRLQSFGVA [S18L] | 3.49
74 | ETAAGKGKGEARARLKRTQSFGVA [S18T] | 4.22
75 | ETAAGKGKGEARARLKRKQSFGVA [S18K] | 4.43
76 | ETAAGKGKGEARARLKRIQSFGVA [S18I] | 3.52
77 | ETAAGKGKGEARARLKRPQSFGVA [S18P] | 4.01
78 | ETAAGKGKGEARARLKRVQSFGVA [S18V] | 3.94
79 | ETAAGKGKGEARARLKRMQSFGVA [S18M] | 3.69
80 | ETAAGKGKGEARARLKRDQSFGVA [S18D] | 4.46
81 | ETAAGKGKGEARARLKRQQSFGVA [S18Q] | 4.43
82 | ETAAGKGKGEARARLKRNQSFGVA [S18N] | 4.5
83 | ETAAGKGKGEARARLKRHQSFGVA [S18H] | 4.02
84 | ETAAGKGKGEARARLKRRQSFGVA [S18R] | 4.26
85 | ETAAGKGKGEARARLKRWQSFGVA [S18W] | 3.64
86 | ETAAGKGKGEARARLKRGQSFGVA [S18G] | 4.6
87 | ETAAGKGKGEARARLKREQSFGVA [S18E] | 4.36
88 | ETAAGKGKGEARARLKRSQSFPVA [G22P] | 5.71
89 | ETAAGKGKGEARARLKRSQSFLVA [G22L] | 4.1
90 | ETAAGKGKGEARARLKRSQSFHVA [G22H] | 4.14
91 | ETAAGKGKGEARARLKRSQSFYVA [G22Y] | 3.84
92 | ETAAGKGKGEARARLKRSQSFMVA [G22M] | 3.86
93 | ETAAGKGKGEARARLKRSQSFTVA [G22T] | 4.31
94 | ETAAGKGKGEARARLKRSQSFRVA [G22R] | 4.28
95 | ETAAGKGKGEARARLKRSQSFEVA [G22E] | 5.65
96 | ETAAGKGKGEARARLKRSQSFDVA [G22D] | 5.1

Row | Variant | protein stability index
97 | ETAAGKGKGEARARLKRSQSFFVA [G22F] | 2.84
98 | ETAAGKGKGEARARLKRSQSFVVA [G22V] | 4.32
99 | ETAAGKGKGEARARLKRSQSFWVA [G22W] | 2.81
100 | ETAAGKGKGEARARLKRSQSFCVA [G22C] | 4.84
101 | ETAAGKGKGEARARLKRSQSFAVA [G22A] | 4.2
102 | ETAAGKGKGEARARLKRSQSFIVA [G22I] | 3.9
103 | ETAAGKGKGEARARLKRSQSFQVA [G22Q] | 4.36
104 | ETAAGKGKGEARARLKRSQSFNVA [G22N] | 4.76
105 | ETAAGKGKGEARARLKRSQSFKVA [G22K] | 4.81
106 | ETAAGKGKGEARARLKRSQSFSVA [G22S] | 5.13
107 | ETAAGKGKGEARARLKRSQKFGVA [S20K] | 4.69
108 | ETAAGKGKGEARARLKRSQTFGVA [S20T] | 4.77
109 | ETAAGKGKGEARARLKRSQAFGVA [S20A] | 4.56
110 | ETAAGKGKGEARARLKRSQWFGVA [S20W] | 3.02
111 | ETAAGKGKGEARARLKRSQLFGVA [S20L] | 4.02
112 | ETAAGKGKGEARARLKRSQMFGVA [S20M] | 4.3
113 | ETAAGKGKGEARARLKRSQCFGVA [S20C] | 4.51
114 | ETAAGKGKGEARARLKRSQNFGVA [S20N] | 4.3
115 | ETAAGKGKGEARARLKRSQFFGVA [S20F] | 4.09
116 | ETAAGKGKGEARARLKRSQPFGVA [S20P] | 4.27
117 | ETAAGKGKGEARARLKRSQQFGVA [S20Q] | 4.08
118 | ETAAGKGKGEARARLKRSQRFGVA [S20R] | 4.09
119 | ETAAGKGKGEARARLKRSQDFGVA [S20D] | 4.58
120 | ETAAGKGKGEARARLKRSQHFGVA [S20H] | 4.26

Row | Variant | protein stability index
121 | ETAAGKGKGEARARLKRSQEFGVA [S20E] | 4.87
122 | ETAAGKGKGEARARLKRSQYFGVA [S20Y] | 3.98
123 | ETAAGKGKGEARARLKRSQIFGVA [S20I] | 3.5
124 | ETAAGKGKGEARARLKRSQVFGVA [S20V] | 4.27
125 | ETAAGKGKGEARARLKRSQGFGVA [S20G] | 3.76
126 | ETAAGKGKGEARARLKRSQSFGCA [V23C] | 4.83
127 | ETAAGKGKGEARARLKRSQSFGLA [V23L] | 3.68
128 | ETAAGKGKGEARARLKRSQSFGAA [V23A] | 5.1
129 | ETAAGKGKGEARARLKRSQSFGQA [V23Q] | 4.94
130 | ETAAGKGKGEARARLKRSQSFGMA [V23M] | 4.84
131 | ETAAGKGKGEARARLKRSQSFGIA [V23I] | 4.39
132 | ETAAGKGKGEARARLKRSQSFGFA [V23F] | 3.98
133 | ETAAGKGKGEARARLKRSQSFGHA [V23H] | 5.02
134 | ETAAGKGKGEARARLKRSQSFGDA [V23D] | 4.84
135 | ETAAGKGKGEARARLKRSQSFGRA [V23R] | 4.89
136 | ETAAGKGKGEARARLKRSQSFGYA [V23Y] | 4.11
137 | ETAAGKGKGEARARLKRSQSFGEA [V23E] | 5.35
138 | ETAAGKGKGEARARLKRSQSFGWA [V23W] | 3.96
139 | ETAAGKGKGEARARLKRSQSFGSA [V23S] | 5.17
140 | ETAAGKGKGEARARLKRSQSFGKA [V23K] | 4.95
141 | ETAAGKGKGEARARLKRSQSFGNA [V23N] | 4.68
142 | ETAAGKGKGEARARLKRSQSFGPA [V23P] | 4.62
143 | ETAAGKGKGEARARLKRSQSFGTA [V23T] | 4.75
144 | ETAAGKGKGEARARLKRSQSFGGA [V23G] | 5.23
